One molecule from US20230073947A1, “A METHOD FOR PREPARING BOVINE MYOGLOBIN USING ESCHERICHIA COLI” (iNtRON Biotechnology, Inc., priority 2020, published 2023) can be followed below.

The subject of this data set is iron-deficiency-anemia-induced animals. The data set is classed as in vivo, Sprague-Dawley rats. The procedure: The composition containing bovine myoglobin prepared according to the present invention was administered to iron-deficiency-anemia-induced animals, whereby the effectiveness of the composition containing bovine myoglobin on alleviating anemia was evaluated. Specifically, after 2 weeks acclimation period, thirty 9-week old Sprague-Dawley rats (female) were divided into 3 groups of 10 rats per group, among which one group was fed with normal feed in an amount of 10% of body weight daily for one month (Group 1; control), and the remaining two groups were fed with iron-deficient feed in an amount of 10% of body weight daily for 6 weeks to induce iron-deficiency anemia (Group 2 and Group 3). After 6 weeks of feeding, it was confirmed that iron-deficiency anemia was induced in the individual rat belonging to Group 2 and Group 3. Then, one of the anemia-induced groups was orally administered once a day with saline alone (Group 2), and the other anemia-induced group was orally administered once a day with solution containing bovine myoglobin (0.1 mg Fe/500 μ1 solution, Group 3). The administration continued for 5 weeks. During 5 weeks of administration to Group 2 and Group 3, Group 1 was continuously fed with normal feed, and Group 2 and Group 3 were fed with iron-deficient feed. […] After 5 weeks of administration, blood was collected, and whether anemia was alleviated was evaluated.

The mark [1] stands for this setting: female Sprague-Dawley rats, iron-deficient feed, oral once a day 0.1 mg Fe/500 μl solution for 5 weeks.

B1: bovine myoglobin (protein)
chain: MGLSDGEWQLVLNAWGKVEADVAGHGQEVLIRLFTGHPETLEKFDKFKHLKTEAEMKASEDLKKHGNTVLTALGGILKKKGHHEAEVKHLAESHANKHKIPVKYLEFISDAIIHVLHAKHPSDFGADAQAAMSKALELFRNDMAAQYKVLGFHG
modifications: heme cofactor; Bovine myoglobin
Take B1: where the note is “conclusion from blood analysis after 5 weeks of administration”, the “Effectiveness at alleviating iron-deficiency anemia” value is “effective at alleviating iron-deficiency anemia”. Under setting [1], the “Blood test Hematocrit” value is reported as 35.8 ± 1.9%, the “Blood test Hemoglobin content” value stood at 14.0 ± 0.7 g/dL and the “Weight of rats on 5 weeks after administration” value was determined as 318.9 ± 1.1 g. Moreover, for the setting “rat, in vivo, po”, the “Occurrence of abnormal symptoms during the administration period” value is “no abnormal symptoms”.
